B1: Azoarcus group I ribozyme (parent)
chain: GUGCCUUGCGCCGGGAAACCACGCAAGGGAUGGUGUCAAAUUCGGCGAAACCUAAGCGCCCGCCCGGGCGUAUGGCAACGCCGAGCCAAGCUUCGGCGCCUGCGCCGAUGAAGGUGUAGAGACUAGACGGCACCCACCUAAGGCAAACGCUAUGGUGAAGGCAUAGUCCAGGGAGUGGCGAAAGUCACACAAACCGG

Variants of: B1
Assay: reverse-splicing fitness (ratio to wild type); higher = more active; in vitro selection; Mg2+ level not given
Method in brief: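 An in vitro group I ribozyme library with randomized positions was T7-transcribed and gel-purified. In triplicate, 10 pmol RNA in EPPS pH 7.5 was reacted with 50 pmoles of a 30-nt RNA substrate for 1 h at 37 °C across several added MgCl2 levels (1–48 mM), then stopped with EDTA. Products were reverse transcribed from a substrate-complementary primer, PCR-amplified and sequenced (HiSeq 4000). Fitness is a variant's read proportion after selection over that before, normalised to wild type.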

Going from C82U A120C C169U U176C to C82U A120C C169U U176G, the reverse-splicing fitness falls from 0.0166 to 0.00414.

First: C82U A120C C169U U176A
Second: C82U A120G A145C C150U C169U U176A
The reverse-splicing fitness of the first is lower: 0.0188 for the first, 0.0235 for the second.

First: C82U A120G A145C C150U C169U U176G
Second: C82U A120G A145C C150U C169U U176C
The reverse-splicing fitness of the first is lower: 0.00351 for the first, 0.00975 for the second.

Going from C82U A120G A145U C150A U176G to C82U A120G A145U C150A U176A, the reverse-splicing fitness rises from 0.00337 to 0.00948.

First: C82U A120G A145U C150A U176C
Second: C82U A120G A145C C150U C169A U176A
The reverse-splicing fitness of the first is higher: 0.0109 for the first, 0.00991 for the second.

First: C82U A120G A145C C150U C169A U176G
Second: C82U A120G A145C C150U C169A U176C
The reverse-splicing fitness of the first is lower: 0.00346 for the first, 0.00527 for the second.

First: C82U A120G A145G C150A C169A U176G
Second: C82U A120G A145G C150A C169A U176A
The reverse-splicing fitness of the first is lower: 0.00457 for the first, 0.018 for the second.

Going from C82U A120G A145G C150A C169A U176C to C82U A120G A145G C150A U176G, the reverse-splicing fitness falls from 0.0191 to 0.00584.

First: C82U A120G A145G C150A U176A
Second: C82U A120G A145G C150A U176C
The reverse-splicing fitness of the first is lower: 0.0092 for the first, 0.0182 for the second.

First: C82U A120G A145C C150U U176C
Second: C82U A120G A145C C150U U176A
The reverse-splicing fitness of the first is lower: 0.00744 for the first, 0.00845 for the second.

Going from C82U A120G A145C C150U U176G to C82U A120G A145C C150A U176C, the reverse-splicing fitness rises from 0.00347 to 0.0066.

Compared with C82U A120G A145C C150A U176A, C82U A120G A145C C150A U176G is lower in reverse-splicing fitness: 0.0076 for the first, 0.00372 for the second.

Compared with C82U A120G A145G C150G C169G U176C, C82U A120G A145G C150G C169G U176A is lower in reverse-splicing fitness: 0.0112 for the first, 0.0089 for the second.

First: C82U A120G A145G C150G C169G U176G
Second: C82U A120G A145U C150A C169G
The reverse-splicing fitness of the first is lower: 0.00523 for the first, 0.0077 for the second.

Compared with C82U A120G A145U C150A C169U, C82U A120G A145U C150A C169A is higher in reverse-splicing fitness: 0.0072 for the first, 0.00815 for the second.

First: C82U A120G
Second: C82U A120G A145G C150A C169G
The reverse-splicing fitness of the first is higher: 0.0259 for the first, 0.0101 for the second.

Compared with C82U A120G A145G C150A C169A, C82U A120G A145G C150A C169U is lower in reverse-splicing fitness: 0.0113 for the first, 0.0101 for the second.

Compared with C82U A120G A145G C150U C169U U176G, C82U A120G A145G C150U C169U U176A is higher in reverse-splicing fitness: 0.00441 for the first, 0.0207 for the second.

Going from C82U A120G A145G C150U C169U U176C to C82U A120G A145G C150G C169A U176G, the reverse-splicing fitness falls from 0.0164 to 0.00685.

Going from C82U A120G A145G C150G C169A U176C to C82U A120G A145G C150G C169A U176A, the reverse-splicing fitness rises from 0.0121 to 0.0129.

Going from C82U A120G A145C C150A C169G U176A to C82U A120G A145C C150A C169G U176G, the reverse-splicing fitness falls from 0.0215 to 0.00402.

Compared with C82U A120G A145C C150A C169G U176C, C82U A120G A145C C169G U176C is higher in reverse-splicing fitness: 0.0125 for the first, 0.0161 for the second.

Compared with C82U A120G A145C C169G U176G, C82U A120G A145C C169G U176A is higher in reverse-splicing fitness: 0.00391 for the first, 0.0276 for the second.

First: C82U A120G A145G C150A C169U U176C
Second: C82U A120G A145G C150A C169U U176G
The reverse-splicing fitness of the first is higher: 0.0166 for the first, 0.0051 for the second.

Compared with C82U A120G A145G C150A C169U U176A, C82U A120G A145G C150G U176C is lower in reverse-splicing fitness: 0.0217 for the first, 0.00995 for the second.

First: C82U A120G A145G C150G U176A
Second: C82U A120G A145G C150G U176G
The reverse-splicing fitness of the first is higher: 0.00607 for the first, 0.00539 for the second.

Compared with C82U A120G A145C C150A C169U U176A, C82U A120G A145C C150A C169U U176G is lower in reverse-splicing fitness: 0.0218 for the first, 0.0041 for the second.

Compared with C82U A120G A145C C150A C169U U176C, C82U A120G A145G C150U is higher in reverse-splicing fitness: 0.00972 for the first, 0.0208 for the second.

Going from C82U A120G A145G C150G to C82U A120G A145G C150A, the reverse-splicing fitness rises from 0.00813 to 0.00966.

Going from C82U A120G A145G C150G C169G to C82U A120G A145G C150G C169U, the reverse-splicing fitness rises from 0.00862 to 0.0101.

Going from C82U A120G A145G C150G C169A to C82U A120G A145G C169U, the reverse-splicing fitness rises from 0.00944 to 0.0197.

First: C82U A120G A145G C169G
Second: C82U A120G A145G C169A
The reverse-splicing fitness of the first is higher: 0.0254 for the first, 0.018 for the second.

Compared with C82U A120G A145G C150U U176G, C82U A120G A145G C150U U176C is higher in reverse-splicing fitness: 0.00573 for the first, 0.019 for the second.

Compared with C82U A120G A145G C150U U176A, C82U A120G A145U C150G C169A is lower in reverse-splicing fitness: 0.00967 for the first, 0.00915 for the second.

Compared with C82U A120G A145U C150G C169G, C82U A120G A145U C150G C169U is higher in reverse-splicing fitness: 0.00815 for the first, 0.00878 for the second.

First: C82U A120G A145G C150G C169U U176A
Second: C82U A120G A145G C150G C169U U176C
The reverse-splicing fitness of the first is higher: 0.0122 for the first, 0.0118 for the second.

First: C82U A120G A145G C150G C169U U176G
Second: C82U A120G A145C C150U C169A
The reverse-splicing fitness of the first is lower: 0.00698 for the first, 0.00913 for the second.

Going from C82U A120G A145C C150U C169G to C82U A120G A145C C150U C169U, the reverse-splicing fitness falls from 0.00988 to 0.00884.

Going from C82U A120G A145G C150U C169G U176C to C82U A120G A145G C150U C169G U176G, the reverse-splicing fitness falls from 0.0207 to 0.00383.

First: C82U A120G A145G C150U C169G U176A
Second: C82U A120G A145C C150G C169A U176C
The reverse-splicing fitness of the first is higher: 0.0132 for the first, 0.00565 for the second.

First: C82U A120G A145C C150G C169A U176A
Second: C82U A120G A145C C150G C169A U176G
The reverse-splicing fitness of the first is higher: 0.00717 for the first, 0.00406 for the second.

In the case of C82U A120G A145C C169A U176C, the reverse-splicing fitness is reported as 0.00742.

Reference: the RNAGym collection of RNA variant scans (doi:10.1093/molbev/msab373)
